Source: paper doi:10.1101/2024.11.01.621267 (bioRxiv, 2024)

B1: HsLARP4 peptide 612–625 (peptide)
peptide: QEPRKLSYAEVCQK
notes: La-related protein 4 (LARP4), human, residues 612-625; source: synthetic peptide (GenScript)
B2: HsLARP4 peptide 575–625 (peptide)
peptide: LNQTTIPVSPPSTTKPSRASTASPCNNNINAATAVALQEPRKLSYAEVCQK
notes: La-related protein 4 (LARP4), human, residues 575-625; source: synthetic peptide (GenScript)
B3: HsLARP4 peptide 587–637 (peptide)
peptide: TTKPSRASTASPCNNNINAATAVALQEPRKLSYAEVCQKPPKEPSSVLVQP
notes: La-related protein 4 (LARP4), human, residues 587-637; source: synthetic peptide (GenScript)
B4: HsLARP4 peptide 615–625 (peptide)
peptide: RKLSYAEVCQK
notes: La-related protein 4 (LARP4), human, residues 615-625 (within CR2); source: synthetic peptide (GenScript)

Target: recombinant full-length RACK1 protein (ITC) (human, UniProt P63244 1-317)
Assay: ITC; LARP4 peptide (400 μM; 300 μM for 600–625) injected into RACK1 (40 μM; 30 μM) in the cell; iTC200; 298K; 20 mM HEPES, 300 mM NaCl, 10% glycerol, 1 mM DTT pH 7.5; triplicate
Details: both partners purified

Kd [nM]	dH [kcal/mol]	stoichiometry N	Ka [M⁻¹]	Binder
2000	-8.3	0.8	–	B1
2700	-5.7	1	370000	B2
2300	-7.8	1	440000	B3
3000	-8.1	0.9	–	B4
